A protein production outcome set (Wang et al. 2014)

Test: label from the status in PepcDB records

Row | Sequence | protein production
1 | MSIRILPENEIKPSASAFEIPPLLFANPKNLYTRRAKRLRELAKNNPLRDYLEFAAHLVDIQLTLLETAPIGNYAEKLTAYLTENQGQKPLNKQQFARDEKWLELLLALIKQCKPYATGAILTTLEFLEKASYAELNNLADHLLNERYEQVSPDQSVFIWLALSLYWTQLAQQLPRHTQAEIGERHTCPVCGSAPITSVIHLDKTQGLRYLHCALCESEWNMTRAQCSNCDESGDLNYWSFDTVEAPIKAESCGDCHSYLKVLYQEKDPYVEPLADDLASLMLDIEMEQKGFVRSGLNPFLFSIE | not failed
2 | METVRPMVVAPKGNKLRRKFAKVLNIHKLTGVAPEGEMKKIKFDSKTAKLSESFYKLEEEYERSQGLEALLAKLFATVSSIKAAYAQLQHSQSPYDSIGIQKADNLVVAELKTLSELKQCFMKKQVDPNPERTLVLAEIQELRSLLKTYEIMGKKLESQYKLKDSEIIFLREKLDESMKQNKLTEKRLNQSGQLCNPLDNLHLSALNPTHFVTYLHHTVKSTRGFVKLMIEQMKLAGWDISSAANSIHPGVFYYKQDHKCFTFEHFVSNVMFEAFHLPYFSTSSESRSYKKKKQSNADREMFFERFKELRSMKAKDYLTARPKSRFARFCRAKYLQLIHPKMEQAFFGHLHLRNQVSAGEFPETSLFSGFLEMAKRIWLLHCLALSFEREAEIFRVPKGCRFSEVYMKSVAEEAFFPAAESSPESEPRVAFTVVPGFRIGKTSIQCEVYLSLS | failed
3 | MLSIFYWLLAIFLINLGIFIFVLTHERRSMWAGLTLTSTLMFLAFLAIDALIIIEAQFPQQHQIIANLLLLASVGVALFILVFVFLLIIIFLYNGIKILIKEGTKWTNFLSLGTGIAIILLIFAYPVLGRSTSAPWFRFIYLFLSMSIFYIIFIMVMYTLTSWLNLININTKKLNYIVVLGAGLLGKKVTPLLASRINRGIEIYHKNPDSKLIMSGGQGPDEEIPESHAMAAYAEEHGVPKSDIIIEDRSKTTNQNLKFSHQLMKPNSTFCIVTNSYHVYRALVLAKRQGLQCIGYGAKTKWYFTLNAFIREFIAYLVITKKMQCSIIGSLAVINIIFAALYYASTQFFS | failed
4 | MGPKVSVITVCYNAEEFIENAIYSVLNQSYENIEYIIIDGASKDNTVSIINKYRSVMACFISEPDKGMYEAMNKGIKAATGDILYFLNSDDVFYDEYVVENVVKVFQKNNNVELIYGPIIIRDPTTNESFIKPHDYITKSYFIYNSICQQGIFYKASVFNKCGQFNDTYKIVGDYEWELRAFYKYNIKRKYYEGIIAIFRDGGMCNCDKFSDLHAKERTKVIKEYFNIFVIYKYKFLLFCRSAIKRLELEHHHHHH | failed
5 | MRVVVISSFVSVSLQLSFLLLLASAIRSSSSPPNDPFLGISPQDEKYYKSSSEIKCKDGSKKFTKAQLNDDFCDCSDGTDEPGTSACPTGKFYCRNAGHSPVILFSSRVNDGICDCCDGSDEYDGHVSCQNTCWEAGKAARENLKKKIETYNQGLVIRRQEIEQAKVGLEKDAAELKKLKSEQKILKGLVDQLKDRKEQIEKVEEKERLQKEKEEKEKKEAELAAQQGKGDAEEKTDDSEKVEESSHDEGTPAVSQHDETTHHDEIGNYKDYPSDEEPAAEGEPTSILDEATHTNPADEHVVERKEESTSSEDSSSPTDESQNDGSAEKEESDEVKKVEDFVTEKKEELSKEELGRLVASRWTGEKSDKPTEADDIPKADDQENHEHTPITAHEADEDDGFVSDGDEDTSDDGKYSDHEPEDDSYEEEYRHDSSSSYKSDADDDVDFSETTSNPTWLEKIQKTVKNILLAVNLFQTTPVDKSEADRVRKEYDESSSKLNKIQSRISSLEKKLKQDFGPEKEFYSFHGRCFESKQGKYTYKVCAYKEATQEEGYSKTRLGEWDKFENSYQFMSYTNGEKCWNGPDRSLKVKLRCGLKNELMDVDEPSRCEYAAILSTPARCLEDKLKELQQKLEKLMNQDKPQNHDEL | failed
6 | MSSNAQVRPPLPPFTRESAIEKIRLAEDGWNSRDPERVSLAYTLDTQWRNRAEFAHNREEAKAFLTRKWAKELDYRLIKELWAFTDNRIAVRYAYEWHDDSGNWFRSYGNENWEFDEQGLMARRFACINDMPIKAQERKFHWPLGRRPDDHPGLSELGLLEHHHHHH | not failed
7 | MKSNDTSFRRYLCSASPRLRPALLAMLTVVLLAGCATADKHGLSPQQRSASDLADSEEIDPAARERISHALGRDADEGALRDALKQQPNNIDAAIPLARALLARNCPNDALEVLDGVLLATPGDLRALNAKAVVLDHEGRHQEAQELYRQALAAEPANPMLRNNFGLSLALQGKMDAGDASAAPQAGSRKALARSR | failed
8 | MQQFATLSLASLLMLGTFTAFAAENGDAPASGWHIDDSATKGASGQQGMFDGVRLTEQQRQQMRDLMHQSRQDKPAFNTEDVKAMHKLVTAETFDEAAVRAQITRMMSVQIERQIQMTRVRNQMYNLLTPAQKEILELKHKQRMKEMQQQISMFNQMVAPSSGTTNHTETDSPELEHHHHHH | not failed
9 | GTGTQPTIVIGGFVPDATEAVEFQRELFRRHGSVYYLNYARHGFSVEMFFAQLADLVEDLNRRGEKPVIFAISFGCSLLSRFLRERYSGEGLTVGGIVMTSP | failed
10 | MTNAIQDRLPRTTNSVEDTMALGARIAQGLSPGAVVALYGDLGTGKTHFVKGVAQGLGLPPAEVRSPTFTILAVHDDGDRPLYHFDAYRVQTPDEFVELGFETYVHGDGLTCIEWAGRVADLLPADTVPLQFHHVAPSTRRITLGAPLEHHHHHH | not failed
11 | MEFLFILLPVFGIFAIGFIGQKTLKFDIPNLSKLTLYLMSPFLAFNTFYTNPLTMDYFYLAIYIFVLCLSLILLVSVISFLLGYNVQDRCALILASAFMNNGNYGTPVVLLVFGAAGLDIAVVLMVLQQLAMSTIGIYFAAKGSKDANGMKTVMTRVVRMPIAYGALLGLMLQLLHIPLPSALMTCVKLVGDAAIPTIMIVLGMQLAVISFRRIELDKVGIALVLKLLIAPFIAFGLTLILPVDEMTKQIMILLAAMPTAANTTLMAVQFDTKPDLVSSTTFISTVLSIITLPIVLYFLHPVF | failed
12 | MNPAITPILLGLVAGITVTFGALTYIVVGRRLGRRGQGVLNALAGGVLAYLALETGHESAAYVEQFATRETLDSFLAGLMVTSIALLGTWLLLSYVERGYSTLVRAPPGLMVSLTVASALGLHNLGEGLAIAASLIEGKVSLAILFAVGFAIHNYTEGFPIAAPLAGEKKRTGLRTIIGLSLLAGLPVVPGAMVYYLGSNLPGLAIATLYTVAAASIVYAMLHINLSALSRLGGLSSPSFWSSLFLGIALAYVTESIILIAGLH | failed
13 | GDGVWDWDISNGSIFFSSRCRQLLGLTAPEAIAGFQLWQTGIHPDERPTVQAELAGYLRQPEGSFVTEHRFRKGEEWIWLLGRGMVVSLDIQGRPLRMIGTYSDITERKEAEAELQLLNSHLEERVAARTAELKKAMQQISIAEKQAALARMVAGMAHELNTPIGNILLCSSQIQADVAAIAKADTDRLLSRKGLQSFLQKAAESCELLQRNSELAGDLIGRFKQIAVDQLDQP | failed
14 | MSIYKDINIASAKPSLKERKNIKHYALDHLNIDEKNNAPLFKTLLEDAMRVSSKEILLIVGGSSFYLKSILEGLSRMPKLSGEEVVKIEREIATLSNPYIFLKSIDPNMAFKIHPNDTYRTHKALEIFYATCTPPSEYFKANPKKPFEHAISLFALSIEKSALHNNIKRRTKNMLHSGLVEEIKALYTQYPKDSQPFKAIGVKESVLFLEKRLTLKELEEAITSNTMKLAKRQNTFNKTQFNNLYVGSAEEVRHAILKHSKSGIKG | failed
15 | RSAEALFEKAVTPSDVGKLNRLVIPKHHAEKHFPLPSSNVSVKGVLLNFEDVNGKVWRFRYSYWNSSQSYVLTKGWSRFVKEKNLRAGDVVSFSRSNGQDQQLYIGWKSRSGSDLDA | not failed
16 | FVWHEYENAAEAAQSLADAVADALQGALDEKGGAVLAVSGGRSPIAFFNALSQKDLDWKNVGITLADERIVPTVHADSNTGLVREYLLKNKAEAAMWIPMVEDGKTETELHPDAVVDYALKHYKQPDVLVLGMGNDGHTASIFPKAPQFQTAIDGSAGVALVHTTPVTAPHERVSMTLDAIAHTGHVFLAIRGEEKKAVFDQAAQGENREYPINLVLNHQGVNCHV | failed
17 | MNAPGLAIEGLGVAYGARTVIAGLSLGPLPHGTLTALLGPNGSGKSTLLKAVAGLLPARGGAIALDGQRLDQADLAQRAQQVAYLPQGLPADVHLRVFESVLVAARAHGGEAAGQIGPPAIAALLERLGIGHLALQFLDELSGGQKQLVGLAQALIRRPRVLLLDEPLSALDPNYQFHVMDLLRQETRDHGLITIAALHDINIALRHADQALLIRAGELAAAGEPAAVIDAPMLARVYGIQARVERCSRGHPHVLVDGVAGPVR | failed
